Measurements as given in article PMC2999918.
Several values for one entry are separate records, joined by “and”; a condition that tells them apart may be missing. Identical values can stand only once.

Key:
[1] = target: S36A mutant human apolipoprotein A-I, recombinant (human); test: cross-linking
[2] = target: S36A mutant human apolipoprotein A-I, recombinant (human); test: AUC
[3] = target: wild-type (WT) human apolipoprotein A-I, recombinant (human) (UniProt P02647); test: native gel or EMSA
[4] = target: wild-type (WT) human apolipoprotein A-I, recombinant (human) (UniProt P02647); test: AUC

stoichiometry N [1] | Ka [2] [M⁻¹] | stoichiometry N [2] | stoichiometry N [3] | Ka [4] [M⁻¹] | Substance
2 | 6.12e+14 | 4 |  |  | S36A mutant human apolipoprotein A-I, recombinant (natural protein)
 |  |  | 2 and 4 | 8.56e+14 | wild-type (WT) human apolipoprotein A-I, recombinant (from UniProt P02647 19-267) (natural protein)
